Measured values taken from patent US20130336885A1 (Genentech, published 2013).

T1: gD epitope-tagged rat LgR5 expressed on stably transfected 293 cells (rat, UniProt D4AC13 22-907)
T1 construct: also called gD-tagged rat LgR5
T1 sequence: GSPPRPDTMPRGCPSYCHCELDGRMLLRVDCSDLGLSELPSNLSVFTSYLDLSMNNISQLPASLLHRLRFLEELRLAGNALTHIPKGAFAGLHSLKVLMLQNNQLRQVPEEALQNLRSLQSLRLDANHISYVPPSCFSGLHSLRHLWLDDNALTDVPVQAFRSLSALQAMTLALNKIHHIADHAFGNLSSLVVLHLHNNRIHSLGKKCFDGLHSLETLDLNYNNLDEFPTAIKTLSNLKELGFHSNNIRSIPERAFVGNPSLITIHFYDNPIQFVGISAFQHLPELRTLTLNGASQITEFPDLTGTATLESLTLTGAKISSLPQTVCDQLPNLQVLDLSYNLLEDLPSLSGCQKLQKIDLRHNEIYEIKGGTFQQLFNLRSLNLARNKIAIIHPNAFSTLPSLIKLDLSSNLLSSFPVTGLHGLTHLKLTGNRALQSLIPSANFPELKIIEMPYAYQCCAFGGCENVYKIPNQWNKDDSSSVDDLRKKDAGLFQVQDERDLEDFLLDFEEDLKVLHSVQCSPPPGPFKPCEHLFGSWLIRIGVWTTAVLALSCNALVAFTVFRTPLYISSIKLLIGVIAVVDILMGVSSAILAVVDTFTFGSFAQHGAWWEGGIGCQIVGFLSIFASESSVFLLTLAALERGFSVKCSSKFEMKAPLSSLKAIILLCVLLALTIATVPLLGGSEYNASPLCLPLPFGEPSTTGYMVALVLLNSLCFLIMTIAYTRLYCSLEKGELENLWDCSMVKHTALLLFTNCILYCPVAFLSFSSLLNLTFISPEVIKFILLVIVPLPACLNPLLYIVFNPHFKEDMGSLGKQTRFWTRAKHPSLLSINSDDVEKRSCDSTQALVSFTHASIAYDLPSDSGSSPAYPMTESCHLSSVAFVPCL

T2: gD epitope-tagged mouse LgR5 expressed on stably transfected 293 cells (mouse, UniProt Q9Z1P4 22-907)
T2 construct: also called gD-tagged mouse LgR5
T2 sequence: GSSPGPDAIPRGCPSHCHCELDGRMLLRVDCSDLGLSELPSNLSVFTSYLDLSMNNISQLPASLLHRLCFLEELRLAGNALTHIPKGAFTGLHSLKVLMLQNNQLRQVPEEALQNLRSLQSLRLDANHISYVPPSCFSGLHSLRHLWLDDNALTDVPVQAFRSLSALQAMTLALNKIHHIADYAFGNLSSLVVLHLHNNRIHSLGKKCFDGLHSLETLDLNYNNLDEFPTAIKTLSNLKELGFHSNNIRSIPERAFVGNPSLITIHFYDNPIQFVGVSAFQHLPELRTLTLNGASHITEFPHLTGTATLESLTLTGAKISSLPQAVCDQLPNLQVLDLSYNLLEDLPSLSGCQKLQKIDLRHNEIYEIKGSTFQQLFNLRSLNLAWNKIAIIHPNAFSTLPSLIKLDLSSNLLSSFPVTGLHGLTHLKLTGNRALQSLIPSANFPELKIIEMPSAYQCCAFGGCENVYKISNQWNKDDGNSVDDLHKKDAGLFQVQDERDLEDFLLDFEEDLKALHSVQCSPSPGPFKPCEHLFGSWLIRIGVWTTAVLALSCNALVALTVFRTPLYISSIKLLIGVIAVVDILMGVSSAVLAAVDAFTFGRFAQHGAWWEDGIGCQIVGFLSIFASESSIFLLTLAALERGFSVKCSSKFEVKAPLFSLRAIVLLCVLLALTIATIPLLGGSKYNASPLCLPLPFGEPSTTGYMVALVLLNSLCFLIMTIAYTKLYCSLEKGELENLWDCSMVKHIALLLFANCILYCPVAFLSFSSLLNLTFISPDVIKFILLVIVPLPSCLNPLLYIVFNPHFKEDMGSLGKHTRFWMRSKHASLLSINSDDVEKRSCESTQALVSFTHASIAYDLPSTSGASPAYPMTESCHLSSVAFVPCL


What was measured:
[1] = target: T1, gD epitope-tagged rat LgR5 expressed on …; test: FACS on 293 cells stably transfected with gD epitope-tagged LgR5, 10 ug/ml antibody, R-Phycoerythrin goat anti-human detection
Protocol: (§1) Monoclonal antibodies were tested to determine if they cross-react with LgR5 from species other than human. […] Residues that are identical among all four species are indicated by asterisks (*). […] YW353 antibody binds human and cynomolgus monkey LgR5, but not rat or mouse LgR5. Ch8E11 and hu8E11.v2 antibodies bind all four species of LgR5, although binding to rat LgR5 is not as strong as binding to human, cynomolgus monkey, or mouse LgR5. 2H6 antibody binds to human and mouse LgR5, and was not tested for binding to cynomolgus monkey or rat LgR5.

[2] = target: T1, gD epitope-tagged rat LgR5 expressed on …; test: FACS on stably transfected 293 cells, detected with R-Phycoerythrin goat anti-human antibody
Protocol: as §1

[3] = target: T2, gD epitope-tagged mouse LgR5 expressed …; test: as above
Protocol: as §1

Row | binding result [1] | binding result [2] | binding result [3] | Binder
1 | binds |  |  | chimeric monoclonal antibody 8E11 (antibody, human IgG1, V domains shown, also called ch8E11; chimeric 8E11) VH: QVQLQQSGTELMKPGASVKISCKATGYTFSAYWIEWIKQRPGHGLEWIGEILPGSDSTDYNEKFKVKATFSSDTSSNTVYIQLNSLTYEDSAVYYCARGGHYGSLDYWGQGTTLKVSS VL: NIVLTQSPASLAVSLGQRATISCRASESVDNYGNSFMHWYQQKPGQPPKLLIYLASNLESGVPARFSGSGSRTDFTLTIDPVEADDAATYYCQQNYEDPFTFGSGTKVEIKR
2 |  | no binding (tested: 10 µg/ml) | no binding (tested: 10 µg/ml) | human antibody YW353 (antibody, human IgG1, kappa, V domains shown, also called huYW353) VH: EVQLVESGGGLVQPGGSLRLSCAASGFTFTSYSISWVRQAPGKGLEWVAEIYPPGGYTDYADSVKGRFTISADTSKNTAYLQMNSLRAEDTAVYYCAKARLFFDYWGQGTLVTVSS VL: DIQMTQSPSSLSASVGDRVTITCRASQDVSTAVAWYQQKPGKAPKLLIYSASFLYSGVPSRFSGSGSGTDFTLTISSLQPEDFATYYCQQSYTTPPTFGQGTKVEIKR
